Laboratory results reported in article doi:10.1101/2022.10.13.512040 (bioRxiv, 2022).

What was measured:
[1] = molecular target: Arabidopsis thaliana PIN1 (PIN-FORMED 1 auxin transporter) (Arabidopsis thaliana, UniProt Q9C6B8); assay: cryo-EM structure
cryo-EM structure = molecular target: the molecule itself; assay: cryo-EM structure

B1: sybody-21 (VHH)
VHH: QVQLVESGGGLVQAGGSLRLSCAASGFPVNISWMEWYRQVPGKEREWVAAIQSTGSYTWYADSVKGRFTISRDNAKNTVYLQMNSLKPEDTAVYYCRVKVGAYYRGQGTQVTVSA
B1: binds [1].

B2: Arabidopsis thaliana PIN1 (PIN-FORMED 1 auxin transporter) (natural protein)
chain: MITAADFYHVMTAMVPLYVAMILAYGSVKWWKIFTPDQCSGINRFVALFAVPLLSFHFIAANNPYAMNLRFLAADSLQKVIVLSLLFLWCKLSRNGSLDWTITLFSLSTLPNTLVMGIPLLKGMYGNFSGDLMVQIVVLQCIIWYTLMLFLFEYRGAKLLISEQFPDTAGSIVSIHVDSDIMSLDGRQPLETEAEIKEDGKLHVTVRRSNASRSDIYSRRSQGLSATPRPSNLTNAEIYSLQSSRNPTPRGSSFNHTDFYSMMASGGGRNSNFGPGEAVFGSKGPTPRPSNYEEDGGPAKPTAAGTAAGAGRFHYQSGGSGGGGGAHYPAPNPGMFSPNTGGGGGTAAKGNAPVVGGKRQDGNGRDLHMFVWSSSASPVSDVFGGGGGNHHADYSTATNDHQKDVKISVPQGNSNDNQYVEREEFSFGNKDDDSKVLATDGGNNISNKTTQAKVMPPTSVMTRLILIMVWRKLIRNPNSYSSLFGITWSLISFKWNIEMPALIAKSISILSDAGLGMAMFSLGLFMALNPRIIACGNRRAAFAAAMRFVVGPAVMLVASYAVGLRGVLLHVAIIQAALPQGIVPFVFAKEYNVHPDILSTAVIFGMLIALPITLLYYILLGL
B2: binds (cryo-EM structure).
